# PMC11791206 (Nature Communications, 2025)
# B1: mAb 9.6.3A6 (3A6 IgG) (antibody, V domains shown)
# VH: EVQLLESGGGLVKPGGSLRLSCAASGFTFNEYMMNWVRQPPGKGLEWVSSISGTSTYINYADSVKGRFTISRDNAKNSLYLQMNSLRSDDTAMYYCARGSTGGYWGQGTLITVSS
# VL: DIVMTQTPLSSAVTLGQPASISCRSSQRLVHSDGNTYLSWLHQRPGQPPRLLIYKVSLRFSGVPDRFSGSGAGTDFTLKISRVEAEDVGIYYCMQATQFPLTFGGGTKVEIK
# notes: copies: 2 + 2
# Target: full-length (MLD-containing) EBOV glycoprotein GP1,2, wild type (Ebola virus (EBOV), UniProt Q05320)
# Assay: immunostaining of cells or tissue
# Settings: one partner purified
# Sequence of full-length (MLD-containing) EBOV glycoprotein GP1,2, wild type (Q05320 33-676): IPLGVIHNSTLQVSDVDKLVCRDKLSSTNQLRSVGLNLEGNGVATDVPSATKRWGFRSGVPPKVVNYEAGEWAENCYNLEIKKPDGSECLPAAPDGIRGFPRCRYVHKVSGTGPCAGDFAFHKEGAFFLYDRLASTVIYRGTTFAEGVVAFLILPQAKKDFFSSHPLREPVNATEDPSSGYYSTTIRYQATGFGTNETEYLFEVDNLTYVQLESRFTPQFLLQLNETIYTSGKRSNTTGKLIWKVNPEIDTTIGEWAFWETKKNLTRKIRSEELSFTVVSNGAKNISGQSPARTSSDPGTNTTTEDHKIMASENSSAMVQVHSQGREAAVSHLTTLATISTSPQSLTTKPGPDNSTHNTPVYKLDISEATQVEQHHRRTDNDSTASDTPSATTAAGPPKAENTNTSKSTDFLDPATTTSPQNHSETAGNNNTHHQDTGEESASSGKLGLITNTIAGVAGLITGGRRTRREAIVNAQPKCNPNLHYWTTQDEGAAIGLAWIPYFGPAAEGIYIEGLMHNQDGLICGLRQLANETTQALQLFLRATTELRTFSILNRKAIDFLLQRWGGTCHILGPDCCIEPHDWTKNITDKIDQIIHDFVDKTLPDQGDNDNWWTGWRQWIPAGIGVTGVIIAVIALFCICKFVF
binder,measurement,value
B1,binding result,binds
